From publication PMC3459908 (2012)

Key:
[1] = biological target: BMP2 (Homo sapiens) (UniProt P12643); assay: SPR; conditions: cited from earlier work
[2] = biological target: T1, BMP4 (Homo sapiens, UniProt P12644); assay: SPR
T1 chain: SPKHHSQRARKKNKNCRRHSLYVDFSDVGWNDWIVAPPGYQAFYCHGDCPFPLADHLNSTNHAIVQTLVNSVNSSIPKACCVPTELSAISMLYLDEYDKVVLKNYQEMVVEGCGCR

[3] = biological target: T2, BMP2 (Homo sapiens, UniProt P12643); assay: SPR
T2 chain: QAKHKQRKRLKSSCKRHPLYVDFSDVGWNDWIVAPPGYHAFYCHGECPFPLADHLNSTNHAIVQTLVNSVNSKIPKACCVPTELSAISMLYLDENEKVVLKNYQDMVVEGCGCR

[4] = biological target: T3, BMP5 (Homo sapiens, UniProt P22003); assay: SPR
T3 chain: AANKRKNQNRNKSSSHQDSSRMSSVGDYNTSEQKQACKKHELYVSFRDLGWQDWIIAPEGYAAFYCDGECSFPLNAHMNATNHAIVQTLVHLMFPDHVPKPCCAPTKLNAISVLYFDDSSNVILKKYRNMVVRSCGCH

[5] = biological target: T4, BMP7 (Homo sapiens, UniProt P18075); assay: SPR
T4 chain: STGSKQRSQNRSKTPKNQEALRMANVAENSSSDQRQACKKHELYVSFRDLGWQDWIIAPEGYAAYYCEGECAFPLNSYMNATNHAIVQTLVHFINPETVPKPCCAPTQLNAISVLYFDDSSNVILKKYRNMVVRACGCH

[6] = biological target: T5, BMP6 (Homo sapiens, UniProt P22004); assay: SPR
T5 chain: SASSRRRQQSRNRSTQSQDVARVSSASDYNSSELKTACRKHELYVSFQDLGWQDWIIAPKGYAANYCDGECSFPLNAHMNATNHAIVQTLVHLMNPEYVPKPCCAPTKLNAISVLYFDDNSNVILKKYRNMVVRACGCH

[7] = biological target: T6, BMP2 (Homo sapiens (Human),Homo sapiens …, UniProt P12643,P12643); assay: SPR kinetic 1:1, BMP immobilised, full soluble RGM analyte
T6 chain 1: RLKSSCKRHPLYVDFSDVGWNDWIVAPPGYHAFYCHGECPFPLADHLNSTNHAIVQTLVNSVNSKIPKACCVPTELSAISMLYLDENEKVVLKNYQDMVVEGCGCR
T6 chain 2: T6 chain 1

[8] = biological target: T7, BMP5 (Homo sapiens (Human),Homo sapiens …, UniProt P22003,P22003); assay: as above
T7 chain 1: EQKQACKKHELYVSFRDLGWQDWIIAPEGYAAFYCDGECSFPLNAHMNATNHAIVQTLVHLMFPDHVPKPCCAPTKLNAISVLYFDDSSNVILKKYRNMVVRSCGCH
T7 chain 2: T7 chain 1

[9] = biological target: T8, BMP7 (Homo sapiens (Human),Homo sapiens …, UniProt P18075,P18075); assay: as above
T8 chain 1: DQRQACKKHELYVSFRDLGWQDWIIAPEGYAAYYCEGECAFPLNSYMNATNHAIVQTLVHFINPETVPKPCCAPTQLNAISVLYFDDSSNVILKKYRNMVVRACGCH
T8 chain 2: T8 chain 1

[10] = biological target: T9, BMP4 (Homo sapiens (Human),Homo sapiens …, UniProt P12644,P12644); assay: as above
T9 chain 1: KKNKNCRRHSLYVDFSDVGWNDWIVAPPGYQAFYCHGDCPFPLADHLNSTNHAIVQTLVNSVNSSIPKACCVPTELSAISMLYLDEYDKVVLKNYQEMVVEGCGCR
T9 chain 2: T9 chain 1

[11] = biological target: T10, BMP9 (Homo sapiens (Human),Homo sapiens …, UniProt Q9UK05,Q9UK05); assay: as above
T10 chain 1: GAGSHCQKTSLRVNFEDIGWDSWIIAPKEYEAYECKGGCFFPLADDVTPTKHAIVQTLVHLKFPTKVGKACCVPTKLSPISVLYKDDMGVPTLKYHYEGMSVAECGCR
T10 chain 2: T10 chain 1

[12] = biological target: T11, BMP6 (Homo sapiens (Human),Homo sapiens …, UniProt P22004,P22004); assay: as above
T11 chain 1: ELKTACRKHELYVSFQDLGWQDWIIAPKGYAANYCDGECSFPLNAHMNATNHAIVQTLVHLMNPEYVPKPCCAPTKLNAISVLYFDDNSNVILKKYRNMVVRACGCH
T11 chain 2: T11 chain 1

HJV (from UniProt Q6ZVN8)
Kd [1]: 140 nM

B1: HJV (protein)
chain: QCKILRCNAEYVSSTLSLRGGGSSGALRGGGGGGRGGGVGSGGLCRALRSYALCTRRTARTCRGDLAFHSAVHGIEDLMIQHNCSRQGPTAPPPPRGPALPGAGSGLPAPDPCDYEGRFSRLHGRPPGFLHCASFGDPHVRSFHHHFHTCRVQGAWPLLDNDFLFVQATSSPMALGANATATRKLTIIFKNMQECIDQKVYQAEVDNLPVAFEDGSINGGDRPGGSSLSIQTANPGNHVEIQAAYIGTTIIIRQTAGQLSFSIKVAEDVAMAFSAEQDLQLCVGGCPPSQRLSRSERNRRGAITIDTARRLCKEGLPVEDAYFHSCVFDVLISGDPNFTVAAQAALEDARAFLPDLEKLHLFPSD
Kd [2]: 4.5 nM | Kd [3]: 9.4 nM | Kd [4]: 17 nM | Kd [5]: 20 nM | Kd [6]: 8.1 nM

B2: RGMB (protein)
chain: QCRIQKCTTDFVSLTSHLNSAVDGFDSEFCKALRAYAGCTQRTSKACRGNLVYHSAVLGISDLMSQRNCSKDGPTSSTNP
Kd [7]: 5.5 nM | Kd [8]: 33 nM | Kd [9]: 166 nM | Kd [10]: 2.6 nM | Kd [11]: > 30 nM

B3: RGMB (protein)
chain: GDCQQPAQCRIQKCTTDFVSLTSHLNSAVDGFDSEFCKALRAYAGCTQRTSKACRGNLVYHSAVLGISDLMSQRNCSKDGPTSSTNPEVTHDPCNYHSHAGAREHRRGDQNPPSYLFCGLFGDPHLRTFKDNFQTCKVEGAWPLIDNNYLSVQVTNVPVVPGSSATATNKITIIFKAHHECTDQKVYQAVTDDLPAAFVDGTTSGGDSDAKSLRIVERESGHYVEMHARYIGTTVFVRQVGRYLTLAIRMPEDLAMSYEESQDLQLCVNGCPLSERIDDGQGQVSAILGHSLPRTSLVQAWPGYTLETANTQCHEKMPVKDIYFQSCVFDLLTTGDANFTAAAHSALEDVEALHPRKERWHIFPSSGN
Kd [6]: 28 nM

B4: RGMA (protein)
chain: PCKILKCNSEFWSATSGSHAPASDDTPEFCAALRSYALCTRRTARTCRGDLAYHSAVHGIEDLMSQHNCSKDGPTSQPRL
Kd [11]: > 100 nM

B5: RGMA (protein)
chain: PHLRTFTDRFQTCKVQGAWPLIDNNYLNVQVTNTPVLPGSAATATSKLTIIFKNFQECVDQKVYQAEMDELPAAFVDGSKNGGDKHGANSLKITEKVSGQHVEIQAKYIGTTIVVRQVGRYLTFAVRMPEEVVNAVEDWDSQGLYLCLRGCPLNQQIDFQAFHTNAEGTGARRLAAASPAPTAPETFPYETAVAKCKEKLPVEDLYYQACVFDLLTTGDVNFTLAAYYALEDVKMLHSNKDKLHLYERTRDLPGRA
Kd [2]: 14 nM | Kd [3]: 22 nM | Kd [4]: 83 nM | Kd [5]: 63 nM | Kd [6]: 55 nM

B6: RGMC (protein)
chain: QCKILRCNAEYVSSTLSLRGGGSSGALRGGGGGGRGGGVGSGGLCRALRSYALCTRRTARTCRGDLAFHSAVHGIEDLMIQHNCSRQGPTAPPPP
Kd [12]: 8.1 nM | Kd [7]: 9.4 nM | Kd [8]: 17 nM | Kd [9]: 20 nM | Kd [10]: 4.5 nM | Kd [11]: > 200 nM
